This note sets out measurements from article PMC5216731.

pKd: −log10 of the molar value.

For this test, the target named is GST-obscurin-PH (human) (UniProt Q5VST9). The experiment in a line: SPR; Biacore 3000; GST-obscurin-PH immobilised on a CM5 chip, HIS-PI3K-p85/SH3 as analyte at 8-250 nM, 20 ul/min, 180 s association, 180 s dissociation; 1:1 Langmuir model. (In SPR one partner is held on a chip, and binding of the other changes the refractive index at the surface.)
Sequence of UniProt Q5VST9 (Q5VST9 5895-6004): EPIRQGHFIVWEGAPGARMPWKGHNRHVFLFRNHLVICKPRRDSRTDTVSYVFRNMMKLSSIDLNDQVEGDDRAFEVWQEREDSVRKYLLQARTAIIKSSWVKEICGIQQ

As for “HIS-PI3K/p85-SH3 (from UniProt O00459 4-80) (domain or fragment)”, the pKd (in general, the negative decadic logarithm of the Kd, by convention in mol/L) was 7.30.
